Source: the supplement of paper PMC9170038

System: MS2 coat protein
Test: apparent KD of MS2 coat protein; designed switch direction (-1 OFF switch, 1 ON switch): -1; higher = weaker reporter binding
Method in brief: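 The reported apparent KD is a per-design median over clusters, from curve fits of normalised cluster fluorescence. Protein titrations used SNAP-549-labelled MS2 coat protein, doubled from 0.7 or 1.5 nM to 3 µM, in Tris-HCl pH 7.5 buffer with KCl, MgCl2, BSA, DTT, tRNA and Tween-20, with no input, 200 uM small-molecule ligand, or an oligonucleotide input. The RNA switches were transcribed on Illumina chips by stalled E. coli RNA polymerase.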

[1] = input ligand: microRNA oligo, concentration not stated
[2] = Eterna round: R95, input ligand: FMN 200 uM
[3] = Eterna round: R95, input ligand: microRNA oligo, concentration not stated
[4] = Eterna round: R95, input ligand: none

Sequence | apparent KD of MS2 coat protein (input ligand: FMN 200 uM) | apparent KD of MS2 coat protein [1] | apparent KD of MS2 coat protein (input ligand: none) | apparent KD of MS2 coat protein [2] | apparent KD of MS2 coat protein [3] | apparent KD of MS2 coat protein [4]
GCAGCAUAGUCGGAAUACGACAUACAUGAGGAUCACCCAUGUCAGGAUAUGGUCUGGAUUACAGGCCAGAAGGGACGAAGCUGC [Eli exng3 - 006] (Eterna round: R96, puzzle: Exclusion NG 3) | 18.4 nM | 17.6 nM | 21.5 nM | – | – | –
UUUAAUUUUUUUUUUUUACAAGCUUUUUGCUCGUCUUAUACAUGAGGAUCACCCAUGUGAGUGAGGGAUAAAUUAUC [JMF 41] (puzzle: Sensor v3, turn-off variant 2) | – | – | – | 19.4 nM | 23.9 nM | 16.7 nM
CUGAUGUGAGGAUAUCGGGCUACGGCCAGGCCGCUAGCAUUCGAGAAGGCACAUGAGGAUCACCCAUGUGAGAA [Laquzara] (Eterna round: R96, puzzle: Exclusion 4) | 230 nM | 112 nM | 153 nM | – | – | –
UCUUCACAUGAGGAUCACCCAUGUGAGGAUAUGGAUUCGCUGGCCGUAGCCAGUGGAUCCAGAAGGCGCGUGAU [JL-ex1-4.23] (Eterna round: R97, puzzle: Exclusion 1) | 65 nM | – | 74 nM | – | – | –
GCCUUGGGAGUCAGGAUAUACAAUAAAAUAAUUAAGUAGAAGGGACAUGAGGAUCACCCAUGUACAUUACAUCG [alecazam31] (Eterna round: R97, puzzle: Brourd's mod of Exclusion 4) | 39.5 nM | – | 25.7 nM | – | – | –
CAUGAUUGGCGAGGAUAUUGUUCUACAUGGCGACGAGAAGGCGCCUGUCACAUGAGGAUCACCCAUGUGAGUCUGGUGAAUGAG [Ex NG1 #84] (Eterna round: R96, puzzle: Exclusion NG 1) | 27 nM | 16.6 nM | 22.2 nM | – | – | –
GCAGGCUUUUGCUCGCCUUACAUGAGGAUCACCCAUGUGGGCCCGGGCCCGGGCCCGCCGGGCCCGGGCCCGGGCCC (Eterna round: R97, puzzle: Sensor, turn-off variant 1) | 30.8 nM | – | 32.1 nM | – | – | –
UACAAUGCUUUUGUAAGGUACAUGAGGAUCACCCAUGUCUCGCAAAGGCUUGAUUAUCACGUACGCGCUUGUCUUGU [Eternabot (L1) Solution 17] (Eterna round: R97, puzzle: Sensor, turn-off variant 1) | 14.3 nM | – | 12.2 nM | – | – | –
AGUAACUAUCACGAAAGUGAUAGUUACACAAGUGAAUAAACAUGAGGAUCACCCAUGUCCUCAUUUGCUCGUUUUAU [Sensor 3 - 17] (puzzle: Sensor v3, turn-off variant 2) | – | – | – | 486 nM | 553 nM | 400 nM
UAGUAUCUUCAGGAUAUCAGUGGAAAACACGUAUGAGAAGGGAAGACAUGAGGAUCACCCAUGUAAAGGGUCCG [BotMod 11 - Jieux - Exclusion 6] (Eterna round: R97, puzzle: Exclusion 6) | 579 nM | – | 203 nM | – | – | –
GACUGCUGAGGAUAUACAUGAGGAUCACCCAUGUGCUUCAGUAUCGAAAGAUACAUUGGUAGAAGGUGGUAGUC [LRO-Excl3-08] (puzzle: Exclusion 3) | – | – | – | – | 14.9 nM | –
AUUGUUUAUGUAGGAUAUGCCUGGCGUGCCUUUGCAGAAGGACAUGAGGAUCACCCAUGUAUUGCGGUCUGCGUUCAGAUCGCA [salish99_ExNG1_r4_032] (Eterna round: R96, puzzle: Exclusion NG 1) | – | 25 nM | – | – | – | –
GUUAAACAUGAGGAUCACCCAUGUAAGGAUAUGCUGCGGUCGCGCUGACGUGACUGCAGCAGAAGGUACAAAUG [Mat - Mod of JL D57] (puzzle: Exclusion 1) | – | – | – | – | 76.4 nM | –
CUUGUUUAUGUAGGAUAUGCCUGGCGUGCCUUUGCAGAAGGACAUGAGGAUCACCCAUGUGGUAUGAGGCUUACCCUUGUCGCC [salish99_ExNG1_r04_121] (Eterna round: R96, puzzle: Exclusion NG 1) | 30.6 nM | 21.1 nM | 28.9 nM | – | – | –
GGGCUUCAAGUGAGGAUAUCUACGCAGUUGAAGCGAGAGAAGGCACAUGAGGAUCACCCAUGUAUAGAAGAAGA [Rausmausis] (puzzle: Brourd's mod of Exclusion 4) | – | – | – | 116 nM | 26.5 nM | 29.1 nM
GGGCCCGGAGGAUAUACAAUGGGCCCGGGAAACCGGGUUUUACAUGAGGAUCACCCAUGUAGAAGGCCGGGCCC [-42.8, -38.99 kcal A 24%, 5a,0] (Eterna round: R97, puzzle: Exclusion 2) | 15.6 nM | – | 14.6 nM | – | – | –
CUGGGCCGAGGAUAUAUUAUGUGAAACAUGAGGAUCACCCAUGUAAUAUGAUGGAUGUAAAUAGAAGGCGGUCUAG [Mat - Exclusion 5 - JL mod - D27] (puzzle: Exclusion 5) | – | – | – | 28.2 nM | 17.4 nM | 21.3 nM

Sequence | apparent KD of MS2 coat protein (input ligand: FMN 200 uM) | apparent KD of MS2 coat protein [1] | apparent KD of MS2 coat protein (input ligand: none) | apparent KD of MS2 coat protein [2] | apparent KD of MS2 coat protein [3] | apparent KD of MS2 coat protein [4]
CAGCUGAAUGUGAGGAUAUGUCUAGCUGCGGCUAGACAGAAGGCACAUGAGGAUCACCCAUGUCUCAACAGCUG [BmEx4/2-D3] (Eterna round: R97, puzzle: Brourd's mod of Exclusion 4) | 414 nM | – | 35.5 nM | – | – | –
GUGAAGUGAGGAUAUACGAGAGAGGCUGAACCUGGAGAGAAGUAGAAGGCACAUGAGGAUCACCCAUGUAAGGA [JR_Exclu4_Sub020] (puzzle: Exclusion 4) | – | – | – | 36.7 nM | 36.1 nM | 34.4 nM
CCGGAACAUGAGGAUCACCCAUGUCAGGAUAUCUCAAAAUCGUCGAAAGACGAUAACAAGAGAAGGGACACCGG [Eli x1 4.30] (Eterna round: R97, puzzle: Exclusion 1) | 20.9 nM | – | 16.4 nM | – | – | –
UUUAAACUUACAAUCUUCGCUGGCAUGCUUGUGCCAGCUACAUGAGGAUCACCCAUGUUUUUUGCUCGUCUUAUUCU [Usre] (puzzle: Sensor v3, turn-off variant 2) | – | – | – | 23.5 nM | – | 25.1 nM
UUUGUUUAUGUGAGGAUAUACUGUUUGUAUUGAUUGUAGAAGGUACAUGAGGAUCACCCAUGUUUUGUAUUUAU [JR_BME4_Sub035] (puzzle: Brourd's mod of Exclusion 4) | – | – | – | – | 17.7 nM | –
CGAUGCUCGAAUCCACAUGAGGAUCACCCAUGUCGAGUUAGCGAGGAUAUCGGUGACACAUAGUAUGAGAAGGCGCGAACCUGA [Ex NG3 #24] (Eterna round: R96, puzzle: Exclusion NG 3) | 103 nM | 28 nM | 41.7 nM | – | – | –
CUGUGCACGCUGCGGUCCUACAUGAGGAUCACCCAUGUGGUCUGGUGGCGUGGGUCACCGGACUUGGCUCGUCUUGG [salish99_S_TOV1_R5_063] (Eterna round: R97, puzzle: Sensor, turn-off variant 1) | 22 nM | – | 23 nM | – | – | –
GAGAGCUGAGGAUAUACAUGAGGAUCACCCAUGUACCACCUUGCCGGCACAGAUCCUUGUAGAAGGCGGCUCUA [Eternabot (L2) Solution 57] (Eterna round: R97, puzzle: Exclusion 3) | 51.3 nM | – | 161 nM | – | – | –
GCAAAAUAUCAGGAUAUGACUAAUUGCGUUAAGUCAGAAGGGAUAACAUGAGGAUCACCCAUGUGAUAUAGUGU [JR_Ex6_Sub030] (Eterna round: R97, puzzle: Exclusion 6) | 237 nM | – | 169 nM | – | – | –
GGAUCGAGUGUGAGGAUAUACCUAUGGAUACAUAGGUAGAAGGCACAUGAGGAUCACCCAUGUCCUAACGGUCC [Eli bmx4 4.15] (Eterna round: R97, puzzle: Brourd's mod of Exclusion 4) | 933 nM | – | 308 nM | – | – | –
UAUUAGCAAGUGAGGUCCCACAUGAGGAUCACCCAUGUGCUCGUCUUAUAAGGUACUGUGACGAGAGUCACGGUACC [Mat - Sensor, turn-off var - Eli Mod - D52] (Eterna round: R97, puzzle: Sensor, turn-off variant 1) | 40.2 nM | – | 44.5 nM | – | – | –
UGUUGUUACGCAGGAUAUGAGGAUCACCCAUAUAAGGAUAUCGAAAGAGAAGGUCUGAGGAUUACCCAGAAGGGCGGGUUAACA [pwkr exNG2 2xF5 2xFMN.29] (Eterna round: R96, puzzle: Exclusion NG 2) | 227 nM | 65.3 nM | 115 nM | – | – | –
AAGGGUGCCUUUAGAACGACAUGAGGAUCACCCAUGUAGACUGAGGAUAUCUACUCCUAAGGACCGGAGAAGGCAGUGUAAUGC [Ex NG3 #63] (Eterna round: R96, puzzle: Exclusion NG 3) | 72.1 nM | 41.4 nM | 58.9 nM | – | – | –
GAGCCAUCGUGAGAUGGCUAACAUACAUGAGGAUCACCCAUGUAGGAUAUCGAUUGCUUUGCAGUCGAGAAGGACAUGUUUAAU [JL ENG3 3.96] (Eterna round: R96, puzzle: Exclusion NG 3) | – | 19.1 nM | – | – | – | –
CUGCUCCGUGUAGGAUAUGCGCGCACCACCCGCGCAGAAGGACAUGAGGAUCACCCAUGUAUGUUAUUAUCACGUGUGGCGCGC [Design 38] (Eterna round: R96, puzzle: Exclusion NG 1) | 12.6 nM | 11.1 nM | 15.9 nM | – | – | –
GUACUACAUGAGGAUCACCCAUGUCAGGAUAUGCGAAUUUCAUCAAAAGAUGAAAUUUGCAGAAGGGACAGUAC [Omei Ex1 A1] (Eterna round: R97, puzzle: Exclusion 1) | 35.3 nM | – | 24.1 nM | – | – | –
AUGUGGGUAAGAAGGUGAAGAUAGAGCGUACGUUAUGGAACAUGAGGAUCACCCAUGUAGCUUUUUGCUCGUCUUAU [JR_SV3TOV2_Sub033] (puzzle: Sensor v3, turn-off variant 2) | – | – | – | 17.6 nM | 61.8 nM | 18.2 nM
